Here are results for one molecule from article PMC9449591, “Therapeutic application of PPE2 protein of Mycobacterium tuberculosis in inhibiting tissue inflammation”.

This data set has as its target T1, rPPE2 (Mycobacterium tuberculosis, UniProt P9WI47 1-556).
T1 sequence: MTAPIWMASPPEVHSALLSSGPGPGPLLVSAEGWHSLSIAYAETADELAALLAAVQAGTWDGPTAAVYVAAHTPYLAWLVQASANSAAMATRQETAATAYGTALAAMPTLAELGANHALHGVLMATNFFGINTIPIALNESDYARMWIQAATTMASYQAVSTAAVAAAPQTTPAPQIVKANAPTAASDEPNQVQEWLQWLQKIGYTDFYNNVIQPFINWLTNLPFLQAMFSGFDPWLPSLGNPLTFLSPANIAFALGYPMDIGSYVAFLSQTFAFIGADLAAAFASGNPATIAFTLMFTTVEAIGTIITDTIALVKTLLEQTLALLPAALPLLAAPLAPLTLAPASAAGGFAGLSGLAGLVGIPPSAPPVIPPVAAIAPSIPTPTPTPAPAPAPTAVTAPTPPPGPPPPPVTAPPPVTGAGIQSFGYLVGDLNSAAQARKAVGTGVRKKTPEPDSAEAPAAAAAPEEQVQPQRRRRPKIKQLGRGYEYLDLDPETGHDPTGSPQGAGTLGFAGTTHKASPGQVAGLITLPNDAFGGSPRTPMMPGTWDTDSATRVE
As to the kind of experiment: EMSA; 20 mM HEPES, 0.5 mM DTT, 0.5 mM EDTA, 5% glycerol; […]; 30 min at room temperature; […]. To be noted: protein: recombinant; tags: His (pRSET-A vector, TALON purified); label: 32P 5' end label (T4 PNK).

B1: scf core promoter 60-bp EMSA oligonucleotide (dsDNA)
DNA 1: CGCGTGCGGGCGGGAGGGAGCTGTATAAAAAGCGCTGGCGGCGCAGCAGCCGGGGCTTCATTTGCG
DNA 2: CGCAAATGAAGCCCCGGCTGCTGCGCCGCCAGCGCTTTTTATACAGCTCCCTCCCGCCCGCACGCG
In the case of B1, the binding result was “binds”.
